Measured values reported in patent US20230242584A1, “NOVEL POLYPEPTIDES WITH SKIN WHITENING ACTIVITY AND USE THEREOF” (Metapore Co., Ltd., priority 2019, published 2023).

Columns and labels:
tyrosinase = molecular target: T1, tyrosinase (Mus musculus, UniProt P11344); assay: Tyrosinase activity assay (tyrosinase inhibitory effect); type: cell-based; settings: 10 μM polypeptide, α-MSH 0.5 μM, 24 hours, B16F10 cell lysate with 5 mM L-DOPA; control 10 μM arbutin; FIG. 2
T1 construct: Cells were lysed with PBS buffer containing 1% Triton X-100 (Sigma); endogenous in cells; host or cells: B16F10 cells, stimulated with alpha-MSH
T1 sequence (P11344 19-533): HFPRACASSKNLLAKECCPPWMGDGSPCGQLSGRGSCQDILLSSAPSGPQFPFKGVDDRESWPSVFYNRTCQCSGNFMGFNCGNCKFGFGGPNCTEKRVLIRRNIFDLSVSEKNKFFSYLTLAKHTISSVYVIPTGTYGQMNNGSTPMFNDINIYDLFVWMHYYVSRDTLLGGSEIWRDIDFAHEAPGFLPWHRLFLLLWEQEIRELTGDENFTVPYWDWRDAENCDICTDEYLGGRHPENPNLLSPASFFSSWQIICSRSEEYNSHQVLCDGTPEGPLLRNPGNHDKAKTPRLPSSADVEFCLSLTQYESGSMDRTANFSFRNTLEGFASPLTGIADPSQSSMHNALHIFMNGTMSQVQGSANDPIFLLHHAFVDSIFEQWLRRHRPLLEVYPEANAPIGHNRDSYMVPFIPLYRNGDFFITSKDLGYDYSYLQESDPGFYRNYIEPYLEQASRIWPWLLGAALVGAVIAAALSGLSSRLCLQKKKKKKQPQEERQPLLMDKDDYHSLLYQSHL
Method: B16F10 cells (6×10^4 cells/well) were aliquoted into 6-well plates and incubated. After 12 hours, the medium was changed to a medium containing a-MSH (Sigma, 0.5 μM) and the test substance (each of the polypeptides or control substances of the present invention). Each 10 μM of polypeptides were treated. In addition, 10 μM of arbutin, which is widely known as a skin whitening ingredient, was used as a control. After incubation for 24 hours, cells were harvested. Cells were lysed with PBS buffer containing 1% Triton X-100 (Sigma). After centrifugation at 12,000 rpm for 20 minutes, the supernatant was harvested and the protein concentration was measured by BCA assay kit (Thermo Fisher Scientific). To measure tyrosinase activity, 50 μg of protein (protein contained in the supernatant) was incubated at 37° C. with 5 mM L-DOPA. Absorbance was measured at 490 nm using a microplate reader (Synergy 2, BioTek). Absorbance was measured every 10 minutes for 1 hour.

B16F10 cells = assay: Melanin assay (melanin inhibitory effect); type: cell-based; settings: 10 μM polypeptide, α-MSH 0.5 μM, 24 hours, absorbance 490 nm, control 10 μM arbutin, FIG. 1
Method: B16F10 cells (6×10^4 cells/well) were aliquoted into 6-well plates and incubated. After 12 hours, the medium was changed to a medium containing α-MSH (Sigma, 0.5 μM) and the test substance (each of the polypeptides or control substances of the present invention). Each 10 μM of polypeptides were treated. In addition, 10 μM of arbutin, which is widely known as a skin whitening ingredient, was used as a control. After incubation for 24 hours, cells were harvested. The number of cells was confirmed using a C-chip (disposable hemacytometer, […]). Cells (1×10^5 cells) were lysed with 1N NaOH at 70° C. for 1 hour. After centrifugation at 4,000 rpm for 5 minutes, the supernatant was harvested and the melanin content was measured. The absorbance of melanin was measured at 490 nm using a microplate reader (Synergy 2, BioTek).

| Sequence | inhibitory effect of tyrosinase (tyrosinase) | inhibitory effect of melanin production (B16F10 cells) |
| --- | --- | --- |
| LKEKAILQATLREEK (peptide fragment from AIMP1(AIMP1 32aa - 46aa)) [Peptide S10] | insignificant | completely absent |
| ADQIIEYLKQQVSLL (amino acid sequence of peptide for skin whitening (AIMP1 18aa - 32aa)) [Peptide S2] | same level of the inhibitory effect of tyrosinase as arbutin | better inhibitory effect of melanin production than arbutin |
